Data taken from patent US20250179196A1 (Janssen / Centocor, published 2025).

Experiments:
[1] = molecular target: T1, human IL-23R expressed on the cell surface of stably transfected iLite and HEK cell lines (human, UniProt Q5VWK5 24-629); assay: flow cytometry on human IL-23R HEK cells, Expt E (11-point, 384well)
T1 construct: whole, on cells; Same receptor on two transfected cell lines; the cell line is named under assay; also called human IL-23R iLite cells; human IL-23R HEK cells
T1 sequence (looked up): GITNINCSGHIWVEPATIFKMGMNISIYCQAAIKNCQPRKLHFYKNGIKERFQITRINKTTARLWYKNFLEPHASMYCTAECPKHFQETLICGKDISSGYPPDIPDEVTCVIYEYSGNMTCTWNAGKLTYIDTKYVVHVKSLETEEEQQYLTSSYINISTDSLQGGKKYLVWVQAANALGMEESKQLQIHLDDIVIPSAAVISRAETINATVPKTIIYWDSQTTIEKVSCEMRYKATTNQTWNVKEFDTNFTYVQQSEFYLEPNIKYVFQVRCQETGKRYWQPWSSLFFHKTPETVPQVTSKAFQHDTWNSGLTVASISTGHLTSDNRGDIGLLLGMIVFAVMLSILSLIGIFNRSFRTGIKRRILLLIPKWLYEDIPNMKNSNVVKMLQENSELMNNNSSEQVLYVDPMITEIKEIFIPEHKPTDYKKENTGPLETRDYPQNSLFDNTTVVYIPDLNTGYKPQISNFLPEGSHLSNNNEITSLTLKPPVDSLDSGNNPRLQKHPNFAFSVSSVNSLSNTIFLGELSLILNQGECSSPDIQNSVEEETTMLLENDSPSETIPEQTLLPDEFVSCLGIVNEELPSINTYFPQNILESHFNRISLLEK
Procedure: HEK-IL-23R cell concentration response mAb binding (11-point, 384-well assay). […] IL-23R mAbs were allowed to bind to cells for 30 minutes, at 37° C. […] Cells were next washed twice in ice-cold stain buffer, then resuspended in a final volume of 10 μL with Sytox Green viability dye (ThermoFisher, Cat #S7020). Plates were kept on ice until run for analysis on the iQue. All washes were performed by centrifugation (800 rcf, 3 minutes) followed by automated aspiration to remove supernatants with plate washers. Cell-binding to HEK-IL-23R cells was measured with FlowJo, by gating for single, viable cells and determining the geometric mean fluorescence intensity (MFI) for the 647 detection antibody. Geometric mean fluorescence intensities were plotted over log mAb concentrations fitted with a dose response curve with variable slope using GraphPad Prism.

[2] = molecular target: T1, human IL-23R expressed on the cell …; assay: flow cytometry on human IL-23R HEK cells, Expt D (8-point, 96well)
Procedure: HEK-IL-23R cell concentration response mAb binding (8-point, 96-well assay). […] HEK-IL-23R and HEK-parental cells (12.5 μL of each, 120000 cells total) were plated in 2× replicate on 96-well V-bottom plates (Corning, Cat #3357) into 37° C. warmed Assay medium containing serially diluted IL-23R mAbs to a final volume of 150 μL. IL-23R mAbs were allowed to bind to cells for 30 minutes, at 37° C. […] Cells were next washed twice in ice-cold stain buffer, then resuspended in a final volume of 30 μL with Sytox Green viability dye (ThermoFisher, Cat #S7020). Plates were kept on ice until run for analysis on the iQue. All washes were performed by centrifugation (800 rcf, 3 minutes) followed by flick decantation to remove supernatants. Cell-binding to HEK-IL-23R cells was measured with FlowJo, by gating for single, viable cells and determining the geometric mean fluorescence intensity (MFI) for the 647 detection antibody. Geometric mean fluorescence intensities were plotted over log mAb concentrations fitted with a dose response curve with variable slope using GraphPad Prism.

| Binder | EC50 [1] | MFI (6.4 nM) [1] | EC50 [2] |
| --- | --- | --- | --- |
| I23RB93 (antibody, mouse IgG2a, kappa, V domains shown, immunization; mouse IgG2a/kappa) VH: QVQLKESGPGLVQPSQSLSITCTVSGFSLTSYGVHWVRQSPGKGLEWLGVIWSGVSTDYNAAFISRLSISKDNSKSQVFFKMNSLQADDTAIYYCARSRGSYYFDYWGQGTTLTVSS VL: DIKMTQSPATLSVTPGDSVSLFCRASQSISNNLHWYQQKSHESPRLLIKYASQSISGIPSRFSGSGSGTDFTLSINSVETEDFGMYFCQQSNSWPLTFGGGTKLEIKR | 8.9 nM | 193000 MFI | 0.5 nM |
| I23RB259 (antibody, mouse IgG2a, kappa, V domains shown, phage display; human V, mouse IgG2a/kappa) VH: QVQLVQSGAEVKKPGSSVKVSCKASGGTFSSYGISWVRQAPGQGLEWMGWISPIFGTTNYAQKFQGRVTITADESTSTAYMELSSLRSEDTAVYYCARMMMQSLDYWGQGTLVTVSS VL: not shown | > 50 nM | 30900 MFI | 29.7 nM |
| I23RB47 (antibody, mouse IgG2a, kappa, V domains shown, immunization; mouse IgG2a/kappa) VH: QVQLKESGPGLVAPSQSLSITCTVSGFSLTNYDIHWVRQSPGKGLEWLGVIWSDGRTDYKGAFISRLSISKDNSKSQVFFKMNSLQADDTAIYYCARNNYYRYGRNTMDYWGQGTSVTVSS VL: DIVLTQSPASQSASLGESVTITCLASQTIGSWLAWYQQKPGKSPQLLIYAATRLADGVPSRFSGSGSGTKFSFKISSLQAEDFVFYYCHQLYSIPLTFGGGTKLEMKR | 4.1 nM | 364000 MFI | 0.2 nM |
| I23RB92 (antibody, mouse IgG2a, kappa, V domains shown, immunization; mouse IgG2a/kappa) VH: EVQLQQSGPEVVKPGASVKISCKASGYTFTDHTMDWVKQSHGKNLEWIGYIYPKSGGTGYNQKFKNKATLTVDKSSSTAYMEFHSLTSDDSAVYYCARWGLRRDGFVYWGQGTLVTVSA VL: DIKMTQSPASLAVSLGQRATISCRASQSVSTSKYDYIHWYQQKSGQPPRLLIKYASNLESGVPARFSGSGSGTDFTLNIHPVEEEDTATYYCQHTWEIPYTFGSGTKLELKR | 4 nM | 376000 MFI | 0.2 nM |
| I23RB65 (antibody, mouse IgG2a, kappa, V domains shown, immunization; mouse IgG2a/kappa) VH: EVQLQQSGPELVKPGASVKISCKASGYTFTDHTMDWVKQSHGKSLEWIGYIYPKSGNAAYSQKFKSEATLTVDKSSSTAYMEFHSLTSEDSAVYYCARWGLRRDGFTYWGQGTSVTVSS VL: QIVLTQSPASLAVSLGQRATISCRASQSVSTSSYNYIHWYQQKPGQPPKLLIKYASNLESGVPARFSGSGSGTDFTLNIHPVEEDDTATYYCQHTWEIPYTFGSGTKLEIKR | 4 nM | 275000 MFI | 0.3 nM |
| I23RB269 (antibody, mouse IgG2a, kappa, V domains shown, phage display; human V, mouse IgG2a/kappa) VH: QVQLVQSGAEVKKPGSSVKVSCKASGGTFSDASISWVRQAPGQGLEWMGTIIPISGNANYAQKFQGRVTITADESTSTAYMELSSLRSEDTAVYYCARDRYVWYYWDGYFDYWGQGTLVTVSS VL: not shown | 14.7 nM | 96800 MFI | 0.6 nM |
| I23RB76 (antibody, mouse IgG2a, kappa, V domains shown, immunization; mouse IgG2a/kappa) VH: EVQLQQSGPELVKPGASVKMSCKASGYTFTDYYMNWMKQSHGKSLEWIGYISPKNGRTGYNQKFKGKATLTVDKSSTTAYMELRSLTSEDSAVYYCAKSNGYYALDYWGQGTTVTVSS VL: DIVLTQSPATLCVTPGETVSLSCRASQNIYKNLHWFQQKSHRSPRLLIKYASDSISGIPSRFTGSGSGTDYTLSINSVKPEDEGIYYCLQGYSTPWTFGGGTKLEIKR | 11.9 nM | 322000 MFI | 0.4 nM |
| I23RB94 (antibody, mouse IgG2a, kappa, V domains shown, immunization; mouse IgG2a/kappa) VH: DVQLQESGPELKKPGETVKISCKASGYTFTNYGMNWVRQAPGKSLKWMGWINTNTGEPAYAEEFKGRFAFSLETSASTAYLQINNLKNEDMATYFCARVRQTARATRGYFDVWGTGTTVTVSS VL: DIVMTQSHKFMSTSVGDRVSITCKASQDVNTAVAWYQQKPGQSPKLLIYSAFYRYPGVPDRFTGSGSGTDFTFTINSVQAEDLAVYCCQQHYTSPLTFGDGTRLEIKR | 2.8 nM | 364000 MFI | 0.1 nM |
| I23RB159 (antibody, mouse IgG2a, kappa, V domains shown, immunization; mouse IgG2a/kappa) VH: EVQLQQSGGGLVKPGGSLKLSCAASGFTFSDYGMAWVRQTPRKGPEWIAFISNLAYSVYYSDTVTGRFTISRENAKNTLYLEMSSLRSEDTAMYYCARHGDYRNYGFAYWGLGTTVTVSS VL: DIVMTQTTSSLSASLGDRVTISCRASQDISNYLNWYQQKPDGTVKLLIYYTSRLHSGVPSRFSGSGSGTDYSLTISNLEQEDIATYFCQQGNTLPWTFGAGTKLELKR |  |  | > 50 nM |
| I23RB98 (antibody, mouse IgG2a, kappa, V domains shown, immunization; mouse IgG2a/kappa) VH: EFQLQQSGPELVKPGASVKMSCKASGYTFTNYYMHWVKQSHGKTIEWIGYIYPNSGDTSYNQKFKGKATLTVDKSSSTAYMELRSLTSEDSAVYTCARFGGFYDAMDYWGQGTTVTVSS VL: DIVLTQSPAIMSASLGERVTMTCTASSSVSSSYLHWYQQKPGSSPKLWIYSTSNLASGVPARFSGSGSGTSYSLTISSMEAEDAATYYCHQYHRSPFTFGSGTKLEMKR | 28.7 nM | 59400 MFI | 1.9 nM |
| I23RB57 (antibody, mouse IgG2a, kappa, V domains shown, immunization; mouse IgG2a/kappa) VH: EFQLQQSGPELVKPGASVKMSCKASGYTFTNYYMHWVKQSHGKTIEWIGYIYPNSGDTSYNQKFKGKATLTVDKSSSTAYMELRSLTSEDSAVYNCARFGGFYDAMDYWGQGTSVTVSS VL: DIVMTQSPAIMSASLGERVTMTCTASSSVSSSYLHWYQQKPGSSPKLWIYSTSNLASGVPARFSGSGSGTSYSLTISSMEAEDAATYYCHQYHRSPFTFGSGTKLEIKR | > 50 nM | 99600 MFI | 5 nM |
| I23RB268 (antibody, mouse IgG2a, kappa, V domains shown, phage display; human V, mouse IgG2a/kappa) VH: QVQLVQSGAEVKKPGSSVKVSCKASGGTFSSYYIHWVRQAPGQGLEWMGGIIPIFGYANYAQKFQGRVTITADESTSTAYMELSSLRSEDTAVYYCARDPGSYGSVYYRRSYYFDYWGQGTLVTVSS VL: EIVLTQSPATLSLSPGERATLSCRASQSVSSYLAWYQQKPGQAPRLLIYDASNRATGIPARFSGSGSGTDFTLTISSLEPEDFAVYYCQQRSNWPLTFGQGTKVEIKR | 38.2 nM | 51900 MFI | 20.6 nM |
| I23RB270 (antibody, mouse IgG2a, kappa, V domains shown, phage display; human V, mouse IgG2a/kappa) VH: QVQLVQSGAEVKKPGSSVKVSCKASGGTFDSYAISWVRQAPGQGLEWMGGIIPISGYANYAQKFQGRVTITADESTSTAYMELSSLRSEDTAVYYCARDLSGGYLGLRTLYYYYFDYWGQGTLVTVSS VL: EIVLTQSPATLSLSPGERATLSCRASQSVSSYLAWYQQKPGQAPRLLIYDASNRATGIPARFSGSGSGTDFTLTISSLEPEDFAVYYCQQRSNWPLTFGQGTKVEIKR | 7.2 nM | 243000 MFI | 0.5 nM |
| I23RB33 (antibody, mouse IgG2a, kappa, V domains shown, immunization; mouse IgG2a/kappa) VH: EVQLQQSGAELVKPGASVKLSCTASGFNIRDIYIHWVKQRPEQGLEWIGRIDPANGHSIYAAKFQGKATITADTSLNIAYMQLSSLTSGDTAVYYCARGSDNDYGRVLAYWGLGTSVTVSS VL: DIVLTQSPAIMSASPGEKVTMTCRASSSVRSSYLHWYQQKSGASPKLWIYSTSNLASGVPARFSGSGSGTSYSLTITSVEAEDAATYYCQQYTGNPIFTFGSGTKLELKR | 5.6 nM | 306000 MFI | 0.2 nM |
| I23RB32 (antibody, mouse IgG2a, kappa, V domains shown, immunization; mouse IgG2a/kappa) VH: EFQLQQSGPELVKPGASVKLSCKASGYTFTDYALHWVKQSPGQGLEWIGWIYPGGGNTYYNDKFKGKATMTADKSSSTAYMQLSSLTSEDSAVYFCARGRLRRDYPMDYWGQGTSVTVSS VL: DIVMTQSPSSLTVTAGEKVTMSCKSSQSLLNSGNQKNYLTWYQQKPGQPPKLLIYWASTRESGVPDRFTGSGSGTDFTLTISSVQAEDLAVYYCQNDYTYPLTFGSGTKLEIKR | 5.1 nM | 292000 MFI | 0.4 nM |
